Data on six molecules can be found in article PMC3166965.

To fix the notation:
B1: dSLIV 2AP9 (structured_RNA)
RNA: GGCCGUAUUGCAGUACCGCGGCC
modifications: 2-aminopurine at position 15 (loop A9), written as A
B2: dSLIV (structured_RNA)
RNA: GGGCCCGGUAUUGCAGUACCGCCGGGUCC
B3: hSLIV 2AP9 (structured_RNA)
RNA: GGCCGUAUUGCAGUACCUCGGCC
modifications: 2-aminopurine at position 15 (loop A9), written as A
B4: hSLII (structured_RNA)
RNA: GGGCUGCCAUUGCACCUCGGCGGUCC
B5: hSLIV 9 bp stem (structured_RNA)
RNA: GGGCCCGGUAUUGCAGUACCUCCGGGUCC
B6: hSLIV 6 bp stem (structured_RNA)
RNA: GGACCUAUUGCAGUACCUGGUCC

T1 sequence (P08579 whole entry): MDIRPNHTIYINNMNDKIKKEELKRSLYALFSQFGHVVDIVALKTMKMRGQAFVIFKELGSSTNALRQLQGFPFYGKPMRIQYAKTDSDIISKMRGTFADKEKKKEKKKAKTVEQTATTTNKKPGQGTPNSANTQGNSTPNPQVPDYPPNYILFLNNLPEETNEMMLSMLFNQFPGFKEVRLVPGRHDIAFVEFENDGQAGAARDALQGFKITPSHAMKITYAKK

The first series addresses T1, U2B" (Homo sapiens, UniProt P08579 1-225). The experiment in a line: filter binding.
Consider B1, for which the binding result is on record as “binds”.

The next series addresses T1, U2B". The experiment in a line: filter binding. This is another data set of the same source.
For B2, binding was characterised by a dissociation constant (Kd) of 2 nM.
The molecule B3 had a dissociation constant (Kd) of 2 nM. That is a single-digit nanomolar value.
On the same count and under the same terms, the same measure for B4: 2.1 nM; for B5: 1 nM; for B6: 2 nM.

The Kd is the concentration at which binding is half-saturated.
